Measurements as given in patent publication US20200140868.

Target: T1, Recombinant FANCE (149-536) wild-type, Q9HB96
T1 chain: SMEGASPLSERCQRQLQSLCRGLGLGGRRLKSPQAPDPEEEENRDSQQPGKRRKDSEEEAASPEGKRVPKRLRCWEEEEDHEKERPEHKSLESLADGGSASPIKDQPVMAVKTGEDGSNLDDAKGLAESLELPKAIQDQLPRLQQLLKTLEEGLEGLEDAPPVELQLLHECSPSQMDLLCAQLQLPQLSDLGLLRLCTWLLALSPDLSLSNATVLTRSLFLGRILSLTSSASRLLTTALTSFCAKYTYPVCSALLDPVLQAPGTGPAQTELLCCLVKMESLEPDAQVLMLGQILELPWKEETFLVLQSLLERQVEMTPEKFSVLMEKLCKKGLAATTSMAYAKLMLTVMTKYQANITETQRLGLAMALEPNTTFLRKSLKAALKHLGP

B1: purified recombinant Chk1 (Upstate Technology) (protein)
chain: MAVPFVEDWDLVQTLGEGAYGEVQLAVNRVTEEAVAVKIVDMKRAVDCPENIKKEICINKMLNHENVVKFYGHRREGNIQYLFLEYCSGGELFDRIEPDIGMPEPDAQRFFHQLMAGVVYLHGIGITHRDIKPENLLLDERDNLKISDFGLATVFRYNNRERLLNKMCGTLPYVAPELLKRREFHAEPVDVWSCGIVLTAMLAGELPWDQPSDSCQEYSDWKEKKTYLNPWKKIDSAPLALLHKILVENPSARITIPDIKKDRWYNKPLKKGAKRPRVTSGGVSESPSGFSKHIQSNLDFSPVNSASSEENVKYSSSQPEPRTGLSLWDTSPSYIDKLVQGISFSQPTCPDHMLLNSQLLGTPGSSQNPWQRLVKRMTRFFTKLDADKSYQCLKETCEKLGYQWKKSCMNQVTISTTDRRNNKLIFKVNLLEMDDKILVDFRLSKGDGLEFKRHFLKIKGKLIDIVSSQKIWLPAT
- in vitro kinase assay, Western blot with anti-pT346-FANCE and anti-pS374-FANCE: the recombinant FANCE (rFANCEwt) protein phosphorylated by Chk1 in vitro
